The values that follow come from patent US20200157519A1 (IMMUNWORK, published 2020).

In this test the target is T1, human fibrinogen (human, UniProt P02671 20-629; P02675 31-491; P02679 27-437, limits assumed).
T1 construct: Bought protein, used as the negative control antigen; also called fibrinogen from human (Sigma)
T1 sequence (looked up) 1: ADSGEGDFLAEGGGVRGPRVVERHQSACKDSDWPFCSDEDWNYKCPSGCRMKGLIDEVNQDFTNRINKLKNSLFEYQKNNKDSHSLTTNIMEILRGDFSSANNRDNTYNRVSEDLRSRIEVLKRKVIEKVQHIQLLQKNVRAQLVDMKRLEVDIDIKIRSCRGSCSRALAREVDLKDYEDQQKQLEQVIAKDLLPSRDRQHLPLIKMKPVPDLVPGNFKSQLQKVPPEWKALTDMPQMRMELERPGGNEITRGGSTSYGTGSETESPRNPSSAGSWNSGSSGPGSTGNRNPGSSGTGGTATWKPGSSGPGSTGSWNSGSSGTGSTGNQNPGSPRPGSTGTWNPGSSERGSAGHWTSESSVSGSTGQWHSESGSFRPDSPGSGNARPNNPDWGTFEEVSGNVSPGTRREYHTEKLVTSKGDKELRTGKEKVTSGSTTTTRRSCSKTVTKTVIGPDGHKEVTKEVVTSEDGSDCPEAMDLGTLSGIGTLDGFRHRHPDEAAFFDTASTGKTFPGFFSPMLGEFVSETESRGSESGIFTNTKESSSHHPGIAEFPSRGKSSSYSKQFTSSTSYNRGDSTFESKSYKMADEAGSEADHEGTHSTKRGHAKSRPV
T1 sequence (looked up) 2: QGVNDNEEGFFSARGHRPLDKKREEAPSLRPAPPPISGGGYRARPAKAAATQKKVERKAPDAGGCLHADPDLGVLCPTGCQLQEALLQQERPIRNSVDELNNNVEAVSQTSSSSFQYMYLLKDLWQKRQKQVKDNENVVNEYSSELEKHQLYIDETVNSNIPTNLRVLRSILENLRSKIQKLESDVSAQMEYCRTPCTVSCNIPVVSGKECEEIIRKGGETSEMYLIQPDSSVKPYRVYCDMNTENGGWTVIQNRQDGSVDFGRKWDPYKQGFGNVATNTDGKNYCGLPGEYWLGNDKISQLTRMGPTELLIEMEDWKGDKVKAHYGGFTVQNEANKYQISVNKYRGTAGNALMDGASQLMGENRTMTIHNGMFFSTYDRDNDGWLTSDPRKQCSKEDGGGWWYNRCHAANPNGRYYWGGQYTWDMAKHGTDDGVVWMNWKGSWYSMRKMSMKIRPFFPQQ
T1 sequence (looked up) 3: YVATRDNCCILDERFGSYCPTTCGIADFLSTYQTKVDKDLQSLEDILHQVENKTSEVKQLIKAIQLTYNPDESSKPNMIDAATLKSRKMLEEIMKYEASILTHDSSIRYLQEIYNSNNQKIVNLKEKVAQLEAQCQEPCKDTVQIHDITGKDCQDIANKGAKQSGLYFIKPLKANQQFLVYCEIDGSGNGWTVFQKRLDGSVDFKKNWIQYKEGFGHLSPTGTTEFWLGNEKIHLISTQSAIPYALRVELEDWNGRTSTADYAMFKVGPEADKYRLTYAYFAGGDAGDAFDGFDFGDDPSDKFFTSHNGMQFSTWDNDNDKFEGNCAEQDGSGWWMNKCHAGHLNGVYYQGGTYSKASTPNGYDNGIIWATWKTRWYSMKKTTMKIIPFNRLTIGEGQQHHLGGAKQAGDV
Description: ELISA, HRP-conjugated polyclonal rabbit anti-reteplase antibody.

B1: recombinant (3D5 VL-(G4S)3-VH scFv α fibrin)-reteplase polypeptide (other)
chain: DIQMTQSPSSLSASVGDRVTITCRASQDVSNNVAWYQQKPGKAPKLLIFWSPWLYSGVPSRFSGSGSGTDFTLTISSLQPEDFATYYCQQGWDSPVTFGQGTKVEIKRGSTSGSGKPGSGEGSTKGEVQLVESGGGLVQPGGSLRLSCAASGFTISDFGIHWVRQAPGKGLEWVASIWPSGGYTYYADSVKGRFTISADTSKNTAYLQMNSLRAEDTAVYYCARSWFYSWYDYWGQGTLVTVSSASGGGGSGGGGSGGGGSSYQGNSDCYFGNGSAYRGTHSLTESGASCLPWNSMILIGKVYTAQNPSAQALGLGKHNYCRNPDGDAKPWCHVLKNRRLTWEYCDVPSCSTCGLRQYSQPQFRIKGGLFADIASHPWQAAIFAKHRRSPGERFLCGGILISSCWILSAAHCFQERFPPHHLTVILGRTYRVVPGEEEQKFEVEKYIVHKEFDDDTYDNDIALLQLKSDSSRCAQESSVVRTVCLPPADLQLPDWTECELSGYGKHEALSPFYSERLKEAHVRLYPSSRCTSQHLLNRTVTDNMLCAGDTRSGGPQANLHDACQGDSGGPLVCLNDGRMTLVGIISWGLGCGQKDVPGVYTKVTNYLDWIRDNMRPA
notes: Fusion: 3D5 scFv (VL, flexible linker, VH) at the N-terminus of reteplase through a flexible linker; also called (3D5 scFv)-reteplase
B1: the binding result was “no binding”.
